In PMC10518340 (Signal Transduction and Targeted Therapy, 2023):

Biological target: T1, recombinant extracellular domain of IFNAR1 (ECD-IFNAR1) (UniProt P17181 28-436, RED-tris-NTA 2nd Generation dye on the His-tag (MST only))
T1 construct: signal peptide in the construct; extracellular domain of IFNAR1, residues 1-436 as printed; the secreted product lacks the signal peptide; source: bought: Sino Biological (13222-H08H)
T1 sequence: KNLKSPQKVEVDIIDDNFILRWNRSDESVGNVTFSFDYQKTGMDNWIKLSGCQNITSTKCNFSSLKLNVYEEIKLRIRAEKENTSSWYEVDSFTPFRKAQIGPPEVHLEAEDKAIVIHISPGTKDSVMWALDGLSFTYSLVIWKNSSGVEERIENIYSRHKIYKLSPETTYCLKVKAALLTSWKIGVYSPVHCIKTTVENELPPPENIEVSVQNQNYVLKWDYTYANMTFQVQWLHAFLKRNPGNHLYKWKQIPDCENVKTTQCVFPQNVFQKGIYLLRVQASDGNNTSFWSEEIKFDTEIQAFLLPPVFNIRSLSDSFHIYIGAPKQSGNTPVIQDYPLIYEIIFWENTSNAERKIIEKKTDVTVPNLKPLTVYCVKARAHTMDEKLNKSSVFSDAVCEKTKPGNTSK
Assay: MST; His-tagged ECD-IFNAR1 labelled with RED-tris-NTA 2nd Generation dye for 30 min, mixed with serially diluted LRPAP1 peptides; Monolith NT.115 capillaries; S/N above 5.0 taken as valid binding
Conditions: both partners purified

B1: RAPD1P1, peptide from the N-terminal of LRPAP1 (residues 35-53) (peptide)
peptide: YSREKNQPKPSPKRESGEE
notes: LRPAP1 residues 35-53; also called PAPD1P1; source: synthetic peptide (GenScript Biotech, purity 95%)
- Kd: 11.3 nM
